This assay has as its target GLP-1 receptor (on pancreatic islets of C57BL/6J mice) (mouse (islets from C57BL/6J mice)) (UniProt O35659).

As for “glucagon like peptide-1 (GLP-1) (ligand)”, the Insulin Secretion ng/islet/hour (glucose-stimulated insulin secretion, 16.7 mM glucose + 10 nM peptide) (ng/islet/hour) is 5.4.

For the origin of these results see patent publication US20210122797A1.
